Ends that are not written are not given here.
Key:
[1] = molecular target: T1, S protein ECD (Severe acute respiratory syndrome coronavirus 2, UniProt P0DTC2, K986P/R682S/R683S/R685S/V987P)
[2] = molecular target: SARS-CoV-2 S protein (Severe acute respiratory syndrome coronavirus 2, UniProt P0DTC2, K986P/R682S/R683S/R685S/V987P)
[3] = molecular target: T1, S protein ECD; remark: listed apart in the source

p102 (ECWEWSYQLQEWSPCP; not fully specified; cysteine pairing not given here)
peptide-phage binding to ECD blocked by NTD-binding antibodies [1]: not by those that bound to the NTD | peptide-phage binding to ECD blocked by RBD-binding antibodies [1]: blocked

p16 (DFDFAENWMEQLKVML; not fully specified)
affinity improvement over 15033 [2]: significant affinity improvement | peptide-phage binding to ECD blocked by NTD-binding antibodies [1]: blocked | peptide-phage binding to ECD blocked by RBD-binding antibodies [1]: not by those that bound to the ACE2-binding site of the RBD | binding to S protein ectodomain (in words) [3]: did not exhibit detectable binding

Source: patent US20240182549A1, “PEPTIDES AND ANTIBODY FUSIONS THAT BIND TO SARS-COV-2 AND METHODS OF USING SAME” (priority 2021, published 2024)
